Positions count from the first letter of the chain named. Where two headings read alike, the source gives them in different places.
T1: mouse CD73 (mouse, UniProt Q61503 29-551, limits assumed)
T1 construct: Expressed in F293 cells and used in ELISA
T1 sequence (looked up): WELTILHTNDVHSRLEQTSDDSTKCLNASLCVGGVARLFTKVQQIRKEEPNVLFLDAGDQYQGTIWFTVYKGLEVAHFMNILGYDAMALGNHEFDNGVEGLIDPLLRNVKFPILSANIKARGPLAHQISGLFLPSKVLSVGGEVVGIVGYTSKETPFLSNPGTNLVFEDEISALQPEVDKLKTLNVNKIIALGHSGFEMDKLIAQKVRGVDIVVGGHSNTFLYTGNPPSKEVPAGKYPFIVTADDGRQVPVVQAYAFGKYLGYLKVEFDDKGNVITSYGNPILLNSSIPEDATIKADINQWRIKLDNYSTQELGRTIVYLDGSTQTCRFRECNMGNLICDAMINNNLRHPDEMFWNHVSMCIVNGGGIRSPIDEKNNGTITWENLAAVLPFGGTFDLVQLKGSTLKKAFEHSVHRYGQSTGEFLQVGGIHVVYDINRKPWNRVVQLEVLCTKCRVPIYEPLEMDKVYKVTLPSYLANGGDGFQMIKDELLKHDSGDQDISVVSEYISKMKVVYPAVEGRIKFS

T2: mCD73hF4 (human; mouse, UniProt Q61503 307-551, limits assumed)
T2 construct: Mouse-human domain swapping protein, expressed in F293 cells
T2 sequence: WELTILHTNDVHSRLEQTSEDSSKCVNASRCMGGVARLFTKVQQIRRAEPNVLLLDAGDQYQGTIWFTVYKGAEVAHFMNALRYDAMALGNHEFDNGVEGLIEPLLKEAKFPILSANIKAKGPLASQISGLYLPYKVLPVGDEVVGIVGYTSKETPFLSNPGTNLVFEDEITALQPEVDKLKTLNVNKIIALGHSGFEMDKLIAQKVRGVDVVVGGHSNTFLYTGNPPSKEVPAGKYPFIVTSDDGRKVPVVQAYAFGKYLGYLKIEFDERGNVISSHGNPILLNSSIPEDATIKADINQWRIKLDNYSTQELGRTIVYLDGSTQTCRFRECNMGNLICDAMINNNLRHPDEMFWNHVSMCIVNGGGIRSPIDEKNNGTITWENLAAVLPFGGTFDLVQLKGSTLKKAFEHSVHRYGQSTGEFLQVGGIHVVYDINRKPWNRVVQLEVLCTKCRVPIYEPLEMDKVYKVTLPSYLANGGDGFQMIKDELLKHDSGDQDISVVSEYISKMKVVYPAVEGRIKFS

T3: human CD73 (human, UniProt P21589 27-549)
T3 construct: the antigen of the Biacore assay is only called human CD73 antigen; also called human CD73 antigen; Recombinant Human CD73-6xHis
T3 sequence: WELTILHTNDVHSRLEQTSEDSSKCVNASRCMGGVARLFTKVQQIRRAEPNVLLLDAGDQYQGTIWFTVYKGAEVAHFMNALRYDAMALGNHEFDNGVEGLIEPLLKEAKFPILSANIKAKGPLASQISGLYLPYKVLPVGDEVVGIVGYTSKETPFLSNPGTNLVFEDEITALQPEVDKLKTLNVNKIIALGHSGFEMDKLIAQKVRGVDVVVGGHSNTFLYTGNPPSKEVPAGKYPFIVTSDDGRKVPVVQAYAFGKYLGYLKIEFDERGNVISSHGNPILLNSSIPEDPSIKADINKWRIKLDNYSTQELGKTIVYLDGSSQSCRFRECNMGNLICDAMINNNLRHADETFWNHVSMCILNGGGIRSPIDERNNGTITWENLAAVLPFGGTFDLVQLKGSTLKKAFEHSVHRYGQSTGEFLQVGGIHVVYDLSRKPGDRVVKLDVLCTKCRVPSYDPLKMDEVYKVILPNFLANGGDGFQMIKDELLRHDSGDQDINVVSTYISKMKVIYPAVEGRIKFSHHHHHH

T4: human CD73 on cells (MDA-MB-231, Calu-1, KLM-1, human CD4+ T-cells) (human, UniProt P21589 27-549)
T4 sequence: T3 sequence

B1: Oleclumab (antibody, V domains shown)
VH: EVQLLESGGGLVQPGGSLRLSCAASGFTFSSYAYSWVRQAPGKGLEWVSAISGSGGRTYYADSVKGRFTISRDNSKNTLYLQMNSLRAEDTAVYYCARLGYGRVDEWGRGTLVTVSS
VL: QSVLTQPPSASGTPGQRVTISCSGSLSNIGRNPVNWYQQLPGTAPKLLIYLDNLRLSGVPDRFSGSKSGTSASLAISGLQSEDEADYYCATWDDSHPGWTFGGGTKLTVL
B2: HuB10/HdB7 (antibody, V domains shown)
VH: QVQLVQSGAEVKKPGASVKVSCKASGYVFSSYWINWVRQAPGQGLEWMGQIYPGDGNTNYNRNFKGRVTLTADKSTSTAYMELSSLRSEDTAVYYCAGFADWGQGTLVTVSS
VL: DIQLTQSPSSLSASVGDRVTITCRASQDIGDSLIWLQQKPGKAPKRLIYATSSLDSGVPSRFSGSRSGTDYTLTISSLQPEDFATYYCQQYSGYPLTFGQGTKVEIK
notes: Humanized 10H5; also called HuVHB10/HdVLB7; humanized 10H5 derivative
B3: HuB10/HdB6 (antibody, V domains shown)
VH: B2 VH
VL: B2 VL with P44I, L78V
notes: Humanized 10H5; also called HuVHB10/HdVLB6; humanized 10H5 derivative
B4: HuB9/HdB7 (antibody, V domains shown)
VH: B2 VH with V68A, Y95F
VL: B2 VL
notes: Humanized 10H5; also called HuVHB9/HdVLB7; humanized 10H5 derivative
B5: 10H5-CDRH1N35A (antibody, V domains shown)
VH: QVKLQQSGAELVKPGASVKISCKASGYVFSSYWIAWVKQRPGKGLEWIGQIYPGDGNTNYNRNFKGKATLTADKSSSTAYMQLSSLTSEDSAVYFCAGFADWGQGTTVTVSS
VL: DIELTQSPSSLSASLGERVSLTCRASQDIGDSLIWLQQEPDGTIKRLIYATSSLDSGVPKRFSGSRSGTSYSLTISSVEAEDAATYYCQQYSGYPLTFGSGTKLEIK
notes: Alanine mutant of 10H5; printed '10H5-CDRHIN35A'; also called 10H5-CDRHIN35A
B6: 10H5-CDRL3Y91A (antibody, V domains shown)
VH: B5 VH with A35N
VL: B5 VL with Y91A
notes: Alanine mutant of 10H5
B7: 10H5-CDRH1W33A (antibody, V domains shown)
VH: B5 VH with W33A, A35N
VL: B5 VL
notes: Alanine mutant of 10H5
B8: 10H5-CDRH3F95A (antibody, V domains shown)
VH: B5 VH with A35N, F99A
VL: B5 VL
notes: Alanine mutant of 10H5

Tests used:
mCD73hF1 (mouse; human) [1] = biological target: mCD73hF1 (mouse; human) (UniProt Q61503); assay: ELISA, antibody titrated; panel mCD73 hF1
mCD73hF2 (mouse; human) = mCD73hF2 (mouse; human) (UniProt Q61503); assay: ELISA, antibody titrated; panel mCD73 hF2
mCD73hF3 (mouse; human) = mCD73hF3 (mouse; human) (UniProt Q61503); assay: ELISA, antibody titrated; panel mCD73 hF3
mCD73hF1 (mouse; human) [2] = biological target: mCD73hF1 (mouse; human) (UniProt Q61503); assay: ELISA, antibody titrated; right panel mCD73 hF1
[3] = biological target: human CD73 on cells (MDA-MB-231, Calu-1, KLM-1, human CD4+ T-cells) (human) (UniProt P21589); assay: cell-based or functional assay
mouse CD73 [4] = biological target: T1, mouse CD73; assay: ELISA, antibody titrated; panel mCD73
mCD73hF4 = biological target: T2, mCD73hF4; assay: ELISA, antibody titrated; panel mCD73 hF4
mouse CD73 [5] = biological target: T1, mouse CD73; assay: ELISA, antibody titrated; left panel mCD73
Source text: The binding affinities of the above four mutated antibodies, 10H5 antibody, Oleclumab, and IgG to mouse CD73 and mouse CD73 hF1 were respectively analyzed by using ELISA assay.

human CD73 [6] = biological target: T3, human CD73; assay: Biacore SPR
[7] = biological target: T4, human CD73 on cells (MDA-MB-231, …); assay: cell-based or functional assay
human CD73 [8] = biological target: T3, human CD73; assay: Biacore SPR; remark: listed apart in the source
human CD73 [9] = biological target: T3, human CD73; assay: Biacore SPR; remark: listed apart in the source
human CD73 [10] = biological target: T3, human CD73; assay: Biacore SPR; remark: listed apart in the source

Molecule	Kd (human CD73 [6])	AMP concentration in supernatant by LC/MS, MDA-MB-231 cells, 400 µM AMP, 10 nM antibody, 6 hours [7]	AMP concentration in supernatant by LC/MS, MDA-MB-231 cells, 400 µM AMP, 10 nM antibody, 24 hours [7]	AMP consumption, Calu-1 cells, 10 nM antibody, 24 hrs [7]	AMP consumption, MDA-MB-231 cells, 10 nM antibody, 6 hr [7]	AMP consumption, MDA-MB-231 cells, 10 nM antibody, 24 h [7]	CFSE left-shift level of CD3/CD28-activated CD4+ T-cells with 400 µM AMP, 10 nM antibody [7]	binding result (mouse CD73 [5])	other results
Oleclumab (antibody)	–	–	–	–	–	–	–	–	EC50 (read off the curve) (mCD73hF1 (mouse; human) [1]): 0.1 nM; EC50 (read off the curve) (mCD73hF2 (mouse; human)): 0.1 nM; EC50 (read off the curve) (mCD73hF3 (mouse; human)): 0.1 nM; EC50 (read off the curve) (mCD73hF1 (mouse; human) [2]): 0.1 nM
B1	–	–	–	–	–	–	–	–	AMP concentration in supernatant by LC/MS, MDA-MB-231 cells, 400 µM AMP, 10 nM antibody, 6 hours [3]: 324 µM; AMP concentration in supernatant by LC/MS, MDA-MB-231 cells, 400 µM AMP, 10 nM antibody, 24 hours [3]: 147 µM; AMP consumption, Calu-1 cells, 10 nM antibody, 24 hrs [3]: > 90%; AMP consumption, MDA-MB-231 cells, 10 nM antibody, 6 hr [3]: < 20%; AMP consumption, MDA-MB-231 cells, 10 nM antibody, 24 h [3]: > 90%; CFSE left-shift level of CD3/CD28-activated CD4+ T-cells with 400 µM AMP, 10 nM antibody, 3 days [3]: 72.9%; EC50 (read off the curve) (mouse CD73 [4]): ~0.1 nM; EC50 (read off the curve) (mCD73hF4): ~0.1 nM; EC50 (read off the curve) (mouse CD73 [5]): ~0.1 nM
B2	0.678 nM	331 µM	287 µM	< 20%	< 10%	< 50%	83.4%	–	koff (human CD73 [8]): 6.54e-05 s⁻¹; kon (human CD73 [8]): 96400 M⁻¹ s⁻¹
B3	0.803 nM	336 µM	286 µM	< 20%	< 10%	< 50%	83.7%	–	koff (human CD73 [9]): 6.57e-05 s⁻¹; kon (human CD73 [9]): 81800 M⁻¹ s⁻¹
B4	0.623 nM	345 µM	298 µM	< 20%	< 10%	< 50%	83.5%	–	koff (human CD73 [10]): 6.36e-05 s⁻¹; kon (human CD73 [10]): 102000 M⁻¹ s⁻¹
B5	–	–	–	–	–	–	–	no binding (tested: about 5e-8 M)	–
B6	–	–	–	–	–	–	–	no binding (tested: about 5e-8 M)	–
B7	–	–	–	–	–	–	–	no binding (tested: about 5e-8 M)	–
B8	–	–	–	–	–	–	–	no binding (tested: about 5e-8 M)	–

From patent US20250136709A1 (DEVELOPMENT CENTER FOR BIOTECHNOLOGY, published 2025)
